Data from patent publication US20100166827A1.

Target: αVβ1/3/5 integrins located in the cardiomyocyte cell membrane
Assay: cell-based or functional assay

half-maximal stimulation of DNA synthesis in primary neonatal rat ventricular cardiomyocytes (BrdU uptake): 155 nM
Substance: Recombinant periostin, purified from HEK293 cells expressing the full-length human cDNA (from UniProt Q15063 22-836) (ligand)
